From US20220324977A1 (BEIJING SINOGENE BIOTECHNOLOGY, published 2022)

Legend:
[1] = target: T1, canine PD-1 protein amino acids 25-168 with His tag (canine, UniProt A0A090BAM7 25-168); experiment: ELISA, PD-1 His 100 ng/mL, clone supernatant
T1 construct: Expressed in Expi293F cells; used as immunogen and as antigen in ELISA and Octet; also called PD-1 His

PD1-Fc [2] = target: T2, PD1-Fc (canine, UniProt A0A090BAM7 25-168); experiment: Octet BLI competition, competitor PD-L1 Fc on AHC sensor, against PD1 Fc only
T2 construct: also called Only Ag (PD1 Fc)
Description: (§1) D-L1 Fc ([…]) was loaded on an AHC sensor for cross-linking assay. Epitope analysis was used to determine the binding of antibodies loaded on the sensor to recombinant antibodies preincubated with PD1-Fc. The binding (response) degrees observed were compared to that of antigen only under the same conditions. If the total response of an antibody was higher than that of antigen only, the antibody would be matched. If the response of an antibody was lower than 80% of that of antigen, the antibody would be blocked with each other.

[3] = target: T1, canine PD-1 protein amino acids 25-168 …; experiment: Octet BLI, supernatant captured by anti-mouse IgG Fc, PD-1 His 20 nM
Description: Octet BMIA was used to determine the affinity of the supernatant of the PD-1A clone culture to PD-1 His. Anti-mouse IgG Fc was added to each clone supernatant to capture competence factors.

PD1-Fc [4] = target: T2, PD1-Fc; experiment: Octet BLI competition, competitor PD-L1 Fc on AHC sensor, PD1 Fc 50 nM preincubated with supernatant 1/2
Description: as §1

T2 sequence (A0A090BAM7 entry or part of it limits assumed): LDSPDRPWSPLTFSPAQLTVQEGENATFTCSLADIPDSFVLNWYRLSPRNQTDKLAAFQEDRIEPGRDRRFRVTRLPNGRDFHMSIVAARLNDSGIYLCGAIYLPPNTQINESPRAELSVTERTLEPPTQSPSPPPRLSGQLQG
T1 sequence (A0A090BAM7 entry or part of it limits assumed): as above

B1: PD-1 A-M15 (antibody, mouse IgG1, V domains shown)
VH: EVRLQQSGAELVKPGASVKLSCTASGFNIKDTYLHWLKERPEQGLEWIGRIDPAIGNTRYDPKFQVKATITADTSSNTAYLQLSSLTSEDSAVYYCARGFYGMDYWGQGTSVTVSS
VL: QIVLTQSPAIMSASPGEKVTMTCSASSSVSYMFWYQQKPGSSPRLWIYDTSNLVSGVPARFSGSRSGTSYSLTISSMEAEDAATYYCQQYSGYPYTFGGGTKLEIK
notes: Mouse IgG1 kappa, hybridoma supernatant; also called 11E10
[1]
  O.D. determined by ELISA: 2.34
PD1-Fc [2]
  % response: -8.21%
[3]
  Kd: 10400 pM
  Response (nm): 0.068 nm
  koff: 0.000608 s⁻¹
  kon: 58500 M⁻¹ s⁻¹
PD1-Fc [4]
  Response (nm): -0.005 nm

B2: PD-1 A-M11 (antibody, V domains shown)
VH: EVQLQQSGAEVVKPGASVKLSCTASGFNIKDTYMHWVKQRPEQGLEWIGRIDPAIGNPKYDPKFQGRATITADTSSNTAYLQLSSLTSEDTAVYYCASGFYAMDCWGQGTSVTVSS
VL: QIVLTQSPAIMSASPGEKVTMTCSASSSITYMFWYQQKPGSSPRLWIYDTSNLVSGVPARFSGSKSGTSYSLTITSMEAEDAATYYCQQYSGYPSTFGSGTKLEIK
notes: Mouse IgG1 kappa, hybridoma supernatant; The VL is therefore uncertain; also called 9B04
[1]
  O.D. determined by ELISA: 2.66
PD1-Fc [2]
  % response: -16%
[3]
  Kd: 904 pM
  Response (nm): 0.049 nm
  koff: 0.000312 s⁻¹
  kon: 346000 M⁻¹ s⁻¹
PD1-Fc [4]
  Response (nm): -0.008 nm

B3: PD-1 A-M23 (antibody, mouse IgG1, V domains shown)
VH: EVRLQQSGAELVKPGASVKLSCTASGFNIKDTYLHWLKERPEQGLEWIGRIDPAIGNTRYDPKFQVKATITADTSSNTAYLQLSSLTSEDSAVYYCARGFYGMDYWGQGTSVTVSS
VL: QIVLTQSPAIMSASPGEKVTMTCSASSSVSYMFWYQQKPGSSPRLWIYDTSNLVSGVPARFSGSRSGTSYSLTISSMEAEDAATYYCQQYSGYPYTFGGGTKLEIK
notes: Mouse IgG1 kappa, hybridoma supernatant; also called 18A08
[1]
  O.D. determined by ELISA: 2.58
PD1-Fc [2]
  % response: -0.47%
[3]
  Kd: 537 pM
  Response (nm): 0.061 nm
  koff: 0.000159 s⁻¹
  kon: 296000 M⁻¹ s⁻¹
PD1-Fc [4]
  Response (nm): 0 nm

B4: PD-1 A-M10 (antibody, mouse IgG1, V domains shown)
VH: EVRLQQSGAELVKPGASVKLSCTASGFNIKDTYLHWLKERPEQGLEWIGRIDPAIGNTRYDPKFQVKATITADTSSNTAYLQLSSLTSEDSAVYYCARGFYGMDYWGQGTSVTVSS
VL: QIVLTQSPAIMSASPGEKVTMTCSASSSVSYMFWYQQKPGSSPRLWIYDTSNLVSGVPARFSGSRSGTSYSLTISSMEAEDAATYYCQQYSGYPYTFGGGTKLEIK
notes: Mouse IgG1 kappa, hybridoma supernatant; also called 8H01
[1]
  O.D. determined by ELISA: 2.83
PD1-Fc [2]
  % response: 12%
[3]
  Kd: 30.6 pM
  Response (nm): 0.044 nm
  koff: 6.96e-06 s⁻¹
  kon: 227000 M⁻¹ s⁻¹
PD1-Fc [4]
  Response (nm): 0.006 nm

B5: PD-1 A-M3 (antibody, mouse IgG1, V domains shown)
VH: EVRLQQSGAELVKPGASVKLSCTASGFNIKDTYLHWLKERPEQGLEWIGRIDPAIGNTRYDPKFQVKATITADTSSNTAYLQLSSLTSEDSAVYYCARGFYGMDYWGQGTSVTVSS
VL: QIVLTQSPAIMSASPGEKVTMTCSASSSVSYMFWYQQKPGSSPRLWIYDTSNLVSGVPARFSGSRSGTSYSLTISSMEAEDAATYYCQQYSGYPYTFGGGTKLEIK
notes: Mouse IgG1 kappa, hybridoma supernatant; also called 4G01
[1]
  O.D. determined by ELISA: 2.87
PD1-Fc [2]
  % response: -5%
[3]
  Kd: < 1 pM
  Response (nm): 0.041 nm
  koff: < 1e-07 s⁻¹
  kon: 174000 M⁻¹ s⁻¹
PD1-Fc [4]
  Response (nm): -0.002 nm

B6: PD-1 A-M1 (antibody, mouse IgG1, V domains shown)
VH: EVQLQQSGAELVKPGASVKLSCTASGFNIKDTYMHWVKQRPEQGLEWIGRIDPAIDNTKYDPKFQGKATITADTSSNTAYLQLSSLTSEDTAVYYCASGFYTMDYWGQGTSVTVSS
VL: QIVLTQSPAIMSASPGEKVTMTCSASSSVTYMYWFQQKPGSSPRLWIYDTSNLVSGVPARFSGSRSGTSYSLTISSMEAEDAATYYCQQYSGHPSSFGSGTKLEIK
notes: Mouse IgG1 kappa, tested as hybridoma supernatant; also called 2C08
[1]
  O.D. determined by ELISA: 2.65
PD1-Fc [2]
  % response: -21.9%
[3]
  Kd: 144000 pM
  Response (nm): 0.049 nm
  koff: 0.00044 s⁻¹
  kon: 3060 M⁻¹ s⁻¹
PD1-Fc [4]
  Response (nm): -0.009 nm
